Source: US20260209384A1 (Stanford University, published 2026)

Target: T1, recombinant human GPC2 (R&D Systems) (human, UniProt Q8N158 24-554, limits assumed, labelled with Dylight488 or Dylight650 in the flow cytometry assays; unlabelled in the ELISA)
T1 construct: extracellular domain; also called hGPC2; human Glypican-2
T1 sequence (looked up): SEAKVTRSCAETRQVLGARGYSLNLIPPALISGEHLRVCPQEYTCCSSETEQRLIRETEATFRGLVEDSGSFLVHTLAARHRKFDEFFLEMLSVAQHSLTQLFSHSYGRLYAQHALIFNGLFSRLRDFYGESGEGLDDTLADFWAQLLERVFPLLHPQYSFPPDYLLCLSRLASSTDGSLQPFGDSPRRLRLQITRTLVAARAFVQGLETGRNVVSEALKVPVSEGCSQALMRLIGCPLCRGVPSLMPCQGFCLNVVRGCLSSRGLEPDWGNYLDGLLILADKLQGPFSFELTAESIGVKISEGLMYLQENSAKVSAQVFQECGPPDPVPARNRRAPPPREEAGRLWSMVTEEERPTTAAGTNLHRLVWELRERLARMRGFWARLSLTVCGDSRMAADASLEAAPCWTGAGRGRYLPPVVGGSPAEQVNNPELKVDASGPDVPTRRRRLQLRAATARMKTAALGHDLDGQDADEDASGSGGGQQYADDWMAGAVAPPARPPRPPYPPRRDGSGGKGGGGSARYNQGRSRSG
Experiment: panning of a human naive Fab phage library against recombinant human GPC2
Description: A naïve human Fab phage display library constructed from peripheral blood B cells of 50 healthy donors, was used for selection of Fabs against purified recombinant GPC2 ectodomain (R&D Systems) as previously described. The isolated Fabs were expressed, purified and tested for binding to the GPC2 ectodomain through ELISA.

B1: GPC2.27 (Fab from a human naive Fab phage library) (Fab, V domains shown)
VH: EVQLVESGPGLVKPSETLSLTCAVSGYSISSGYYWGWIRQPPGKGLEWIGSIYHSGSTYYNPSLKSRVTISVDTSKNQFSLKLSSVTAADTAVYYCASLPSRGGFDYWGQGTLVTVSS
VL: EIVMTQSPATLSASVGDRVTIACRASQTISRYLNWYQQKPGKAPKLLIYAASSLQSGVSSRFSGSGSGTEFTLTISSLQPEDFATYFCQQTYSPPITFGQGTRLEIKR
notes: Human Fab selected by phage display
binding result: binds
